Reference: the supplement of paper PMC12764529
± gives the half width of the 95% confidence interval.

How the values were obtained:
[1] = folding stability dG unfold (combined trypsin and chymotrypsin); higher = more stable
How it was run: (§1)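 Bayesian fitting of sequencing counts gave K50 for each design. Unfolding free energy followed by setting this against a sequence-predicted unfolded-state K50 and a shared folded-state K50, either per protease or with trypsin and chymotrypsin combined. The designs, under 80 residues and lacking cysteine, were digested in a PA-tagged cDNA display format at 11 threefold-diluted protease concentrations and without protease, and only those with AlphaFold2 dimer inter-PAE above 15 were kept.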

[2] = folding stability dG unfold from chymotrypsin proteolysis; higher = more stable
How it was run: as §1

[3] = folding stability dG unfold from trypsin proteolysis; higher = more stable
How it was run: as §1

Sequence	folding stability dG unfold [1] [kcal/mol]	folding stability dG unfold [2] [kcal/mol]	folding stability dG unfold [3] [kcal/mol]
SADHKFEIDINVFEHDGWRYIMIPVKYDDPQDVDEAAEKILREFGIPPNFNVNVMRSPNEVWINIRIPYSAG [r14_804_TrROS]	2.53 ± 0.15	2.85 ± 0.077	2.08 ± 0.06
SADLAAELEEGGFVVTITETVVSVTPQTLEKDSFVVEKDVVTTITVTPPPVAPPPPDPANLRDAAGAPVSAG [r14_569_JUSTAS]	0.798 ± 0.084	1.01 ± 0.023	-0.0411 ± 0.041
SADLAKNIAKKLNPDIKDVQIKDIELQPNPDNGYPVIKVELEVKMNDGPYKKSIWFMPNGFQIKIQPVPSAG [r14_397_TrROS]	1.44 ± 0.29	1.77 ± 0.21	0.783 ± 0.17
SADPGDTVELEFWLPPGMNPEFVEQMEDEIRNILRDLGLEVDVKVEPDPDNGYVPVTITITKEQLKDLFSAG [r14_602_TrROS]	1.82 ± 0.18	1.74 ± 0.1	1.93 ± 0.12
SADPLSSILSQALSVEFDPETGKVTITTKDKSIVEKALEEGAENATLTESEDDIYTATIDLPPLPEGVLSAG [r14_115_TrMRF]	0.12 ± 0.39	-0.155 ± 0.085	0.576 ± 0.12
SAEEELRKALENMSDEELEALLRAAAPPPKTVTIRLSEEELEKLAQELADEYNVTVTVEVDGKTLTLTLSAG [r14_7_TrROS_Hall]	1.76 ± 0.049	1.74 ± 0.051	1.69 ± 0.024
SAEELARRLRELGLEVEIVRIERERRPDGTIRIEVRLDGELVAELEVRLPPPPPPVEVVRDADGRERRVRSA [r9_442_TrROS_Hall]	1.9 ± 0.27	1.82 ± 0.4	1.63 ± 0.18
SAEEPEVVRLEIRITVVERDEDGRLREREVTLEVEVLPDGRVVIRVDGRVFVIDLETGELVEVLEDVEPSAG [r14_821_TrROS_Hall]	4.02 ± 0.089	4.14 ± 0.081	3.77 ± 0.099
SAEKEYKVKVKVKIEIVELSEEELENLPPGALVIEVDGKLYLMRIEVEEVEVEEVPEEPEVDEETGELLSAG [r14_126_TrROS_Hall]	3.33 ± 0.17	3.86 ± 0.1	2.28 ± 0.16
SAEKIYYKVKVKVEIEKDGKPDIELEIEFIVSPEIPPEKVKEFIEKFLKSKGYKIKKIEIETEPIPSLESAG [r14_979_TrMRF]	5.03 ± 0.29	4.86 ± 0.13	3.95 ± 0.31
SAEKKTVRVVLEITLPPGLKPGDTITVKIEVDGKVYEAKILRVEEVPPGQTVRIVLELPAEDVKITIEPSAG [r14_554_TrROS_Hall]	3.81 ± 0.071	4.06 ± 0.08	3.21 ± 0.079
SAEKPPVVTLEIEIEIVVKDENGKTHKRKFRLTVTFYPDGTVEISIYDENGELIETITLPPGATLEELLSAG [r14_559_TrROS_Hall]	3.61 ± 0.11	3.99 ± 0.15	2.26 ± 0.083
SAELLEELLKKAREEAEKEGKKVEIHLVLVVEKDENGKVTFTEEEKELIKKLKEAFPDVEIKIEVVELPSAG [r14_636_TrROS_Hall]	3.28 ± 0.13	3.45 ± 0.16	2.83 ± 0.18
SAELPPGMRLVIDDIEPMRNNGKPMLMIKLSIYDPAKPGKEITHWTIMVTNDNIMAIQPTTYRIPPDDISAG [r14_651_TrROS]	2.57 ± 0.22	2.63 ± 0.12	2.64 ± 0.075
SAEMTEEERARRLAEKLREELEELGVEKVEIEFDEEERRVTVRVTLSPEVREKLAERLGLSREELDALLSAG [r14_688_TrROS_Hall]	3.43 ± 0.079	2.914 ± 0.023	4.1 ± 0.1
SAEPITITWPNGMQIPLYKDDDGEIEIKIQMYDPKDGKPVGEQEQRIDPDDNTIEFRFPNGWPFSITIPDSA [r9_56_TrROS]	0.473 ± 0.22	0.0536 ± 0.57	0.835 ± 0.11
SAERTPVREADIPIPGLPVVVRVRTYAEAVELARKSGVPVVVETVEVEVFLPDGSRVRFPAPGLLVLDGSAG [r14_100_TrMRF]	1.5 ± 0.036	1.55 ± 0.055	1.41 ± 0.0081
SAETVTFRVGDVEIVARRLPDGYVVVTEKVPEEYPEAELVLSLVRVYPDGTVEVESRLYRIDPETGVIGSAG [r14_724_TrMRF]	2.48 ± 0.17	2.67 ± 0.053	2.12 ± 0.049
